*1 amine or outer side, *2 acyl side, *3 side chain or, on linkers, in order; H or OH if unused. Side-chain parts run from the residue outwards. The star is where a group is joined. C18 diacid = O=C(O)CCCCCCCCCCCCCCCCC(=O)*; γGlu = O=C(O)[C@H](CCC(=O)[*:2])N[*:1]; Isovaleryl = CC(C)CC(=O)*; AEEA = NCCOCCOCC(=O)O

The labels stand for the following.
T1: human neuropeptide Y2 receptor (human, UniProt P49146 1-381)
T1 construct: whole, on cells; also called hNPY2 receptor; hNPY2-R
T1 sequence (looked up): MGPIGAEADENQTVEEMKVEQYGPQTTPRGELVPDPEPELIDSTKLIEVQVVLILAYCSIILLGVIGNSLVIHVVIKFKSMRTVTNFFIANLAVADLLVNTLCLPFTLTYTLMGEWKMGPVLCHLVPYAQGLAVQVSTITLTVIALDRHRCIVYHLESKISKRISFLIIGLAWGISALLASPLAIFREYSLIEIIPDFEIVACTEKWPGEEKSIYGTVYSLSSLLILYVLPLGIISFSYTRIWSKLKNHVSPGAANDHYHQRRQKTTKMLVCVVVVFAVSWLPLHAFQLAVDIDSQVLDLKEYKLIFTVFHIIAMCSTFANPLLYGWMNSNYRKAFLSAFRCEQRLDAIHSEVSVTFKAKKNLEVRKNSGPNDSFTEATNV

B1: Compound 223 (peptide)
peptide: Isovaleryl-APEK([AEEA-AEEA-γGlu-C18 diacid])PEEAAEPEELQRYYVSLRHYYNWLTRQRY-NH2
SMILES: CC(C)CC(=O)N[C@@H](C)C(=O)N1CCC[C@H]1C(=O)N[C@@H](CCC(=O)O)C(=O)N[C@@H](CCCCNC(=O)COCCOCCNC(=O)COCCOCCNC(=O)CC[C@H](NC(=O)CCCCCCCCCCCCCCCCC(=O)O)C(=O)O)C(=O)N1CCC[C@H]1C(=O)N[C@@H](CCC(=O)O)C(=O)N[C@@H](CCC(=O)O)C(=O)N[C@@H](C)C(=O)N[C@@H](C)C(=O)N[C@@H](CCC(=O)O)C(=O)N1CCC[C@H]1C(=O)N[C@@H](CCC(=O)O)C(=O)N[C@@H](CCC(=O)O)C(=O)N[C@@H](CC(C)C)C(=O)N[C@@H](CCC(N)=O)C(=O)N[C@@H](CCCNC(=N)N)C(=O)N[C@@H](Cc1ccc(O)cc1)C(=O)N[C@@H](Cc1ccc(O)cc1)C(=O)N[C@H](C(=O)N[C@@H](CO)C(=O)N[C@@H](CC(C)C)C(=O)N[C@@H](CCCNC(=N)N)C(=O)N[C@@H](Cc1c[nH]cn1)C(=O)N[C@@H](Cc1ccc(O)cc1)C(=O)N[C@@H](Cc1ccc(O)cc1)C(=O)N[C@@H](CC(N)=O)C(=O)N[C@@H](Cc1c[nH]c2ccccc12)C(=O)N[C@@H](CC(C)C)C(=O)N[C@H](C(=O)N[C@@H](CCCNC(=N)N)C(=O)N[C@@H](CCC(N)=O)C(=O)N[C@@H](CCCNC(=N)N)C(=O)N[C@@H](Cc1ccc(O)cc1)C(N)=O)[C@@H](C)O)C(C)C
B2: Compound 229 (peptide)
peptide: Isovaleryl-APEK([AEEA-AEEA-γGlu-C18 diacid])PEEDASPEELQRYYVSARHYYNWLTRQRY-NH2
SMILES: CC(C)CC(=O)N[C@@H](C)C(=O)N1CCC[C@H]1C(=O)N[C@@H](CCC(=O)O)C(=O)N[C@@H](CCCCNC(=O)COCCOCCNC(=O)COCCOCCNC(=O)CC[C@H](NC(=O)CCCCCCCCCCCCCCCCC(=O)O)C(=O)O)C(=O)N1CCC[C@H]1C(=O)N[C@@H](CCC(=O)O)C(=O)N[C@@H](CCC(=O)O)C(=O)N[C@@H](CC(=O)O)C(=O)N[C@@H](C)C(=O)N[C@@H](CO)C(=O)N1CCC[C@H]1C(=O)N[C@@H](CCC(=O)O)C(=O)N[C@@H](CCC(=O)O)C(=O)N[C@@H](CC(C)C)C(=O)N[C@@H](CCC(N)=O)C(=O)N[C@@H](CCCNC(=N)N)C(=O)N[C@@H](Cc1ccc(O)cc1)C(=O)N[C@@H](Cc1ccc(O)cc1)C(=O)N[C@H](C(=O)N[C@@H](CO)C(=O)N[C@@H](C)C(=O)N[C@@H](CCCNC(=N)N)C(=O)N[C@@H](Cc1c[nH]cn1)C(=O)N[C@@H](Cc1ccc(O)cc1)C(=O)N[C@@H](Cc1ccc(O)cc1)C(=O)N[C@@H](CC(N)=O)C(=O)N[C@@H](Cc1c[nH]c2ccccc12)C(=O)N[C@@H](CC(C)C)C(=O)N[C@H](C(=O)N[C@@H](CCCNC(=N)N)C(=O)N[C@@H](CCC(N)=O)C(=O)N[C@@H](CCCNC(=N)N)C(=O)N[C@@H](Cc1ccc(O)cc1)C(N)=O)[C@@H](C)O)C(C)C
B3: Compound 224 (peptide)
peptide: Isovaleryl-APEK([AEEA-AEEA-γGlu-C18 diacid])PGEEASPEELEQYYVSLRHYYNWLTRQRY-NH2
SMILES: CC(C)CC(=O)N[C@@H](C)C(=O)N1CCC[C@H]1C(=O)N[C@@H](CCC(=O)O)C(=O)N[C@@H](CCCCNC(=O)COCCOCCNC(=O)COCCOCCNC(=O)CC[C@H](NC(=O)CCCCCCCCCCCCCCCCC(=O)O)C(=O)O)C(=O)N1CCC[C@H]1C(=O)NCC(=O)N[C@@H](CCC(=O)O)C(=O)N[C@@H](CCC(=O)O)C(=O)N[C@@H](C)C(=O)N[C@@H](CO)C(=O)N1CCC[C@H]1C(=O)N[C@@H](CCC(=O)O)C(=O)N[C@@H](CCC(=O)O)C(=O)N[C@@H](CC(C)C)C(=O)N[C@@H](CCC(=O)O)C(=O)N[C@@H](CCC(N)=O)C(=O)N[C@@H](Cc1ccc(O)cc1)C(=O)N[C@@H](Cc1ccc(O)cc1)C(=O)N[C@H](C(=O)N[C@@H](CO)C(=O)N[C@@H](CC(C)C)C(=O)N[C@@H](CCCNC(=N)N)C(=O)N[C@@H](Cc1c[nH]cn1)C(=O)N[C@@H](Cc1ccc(O)cc1)C(=O)N[C@@H](Cc1ccc(O)cc1)C(=O)N[C@@H](CC(N)=O)C(=O)N[C@@H](Cc1c[nH]c2ccccc12)C(=O)N[C@@H](CC(C)C)C(=O)N[C@H](C(=O)N[C@@H](CCCNC(=N)N)C(=O)N[C@@H](CCC(N)=O)C(=O)N[C@@H](CCCNC(=N)N)C(=O)N[C@@H](Cc1ccc(O)cc1)C(N)=O)[C@@H](C)O)C(C)C
B4: Compound 232 (peptide)
peptide: Isovaleryl-APAK([AEEA-AEEA-γGlu-C18 diacid])PPEDASPEELQRYYVELRHYYNWLTRQRY-NH2
SMILES: CC(C)CC(=O)N[C@@H](C)C(=O)N1CCC[C@H]1C(=O)N[C@@H](C)C(=O)N[C@@H](CCCCNC(=O)COCCOCCNC(=O)COCCOCCNC(=O)CC[C@H](NC(=O)CCCCCCCCCCCCCCCCC(=O)O)C(=O)O)C(=O)N1CCC[C@H]1C(=O)N1CCC[C@H]1C(=O)N[C@@H](CCC(=O)O)C(=O)N[C@@H](CC(=O)O)C(=O)N[C@@H](C)C(=O)N[C@@H](CO)C(=O)N1CCC[C@H]1C(=O)N[C@@H](CCC(=O)O)C(=O)N[C@@H](CCC(=O)O)C(=O)N[C@@H](CC(C)C)C(=O)N[C@@H](CCC(N)=O)C(=O)N[C@@H](CCCNC(=N)N)C(=O)N[C@@H](Cc1ccc(O)cc1)C(=O)N[C@@H](Cc1ccc(O)cc1)C(=O)N[C@H](C(=O)N[C@@H](CCC(=O)O)C(=O)N[C@@H](CC(C)C)C(=O)N[C@@H](CCCNC(=N)N)C(=O)N[C@@H](Cc1c[nH]cn1)C(=O)N[C@@H](Cc1ccc(O)cc1)C(=O)N[C@@H](Cc1ccc(O)cc1)C(=O)N[C@@H](CC(N)=O)C(=O)N[C@@H](Cc1c[nH]c2ccccc12)C(=O)N[C@@H](CC(C)C)C(=O)N[C@H](C(=O)N[C@@H](CCCNC(=N)N)C(=O)N[C@@H](CCC(N)=O)C(=O)N[C@@H](CCCNC(=N)N)C(=O)N[C@@H](Cc1ccc(O)cc1)C(N)=O)[C@@H](C)O)C(C)C
B5: Compound 227 (peptide)
peptide: Isovaleryl-APEK([AEEA-AEEA-γGlu-C18 diacid])AEEDASPEELEQYYVSLRHYYNWLTRQRY-NH2
SMILES: CC(C)CC(=O)N[C@@H](C)C(=O)N1CCC[C@H]1C(=O)N[C@@H](CCC(=O)O)C(=O)N[C@@H](CCCCNC(=O)COCCOCCNC(=O)COCCOCCNC(=O)CC[C@H](NC(=O)CCCCCCCCCCCCCCCCC(=O)O)C(=O)O)C(=O)N[C@@H](C)C(=O)N[C@@H](CCC(=O)O)C(=O)N[C@@H](CCC(=O)O)C(=O)N[C@@H](CC(=O)O)C(=O)N[C@@H](C)C(=O)N[C@@H](CO)C(=O)N1CCC[C@H]1C(=O)N[C@@H](CCC(=O)O)C(=O)N[C@@H](CCC(=O)O)C(=O)N[C@@H](CC(C)C)C(=O)N[C@@H](CCC(=O)O)C(=O)N[C@@H](CCC(N)=O)C(=O)N[C@@H](Cc1ccc(O)cc1)C(=O)N[C@@H](Cc1ccc(O)cc1)C(=O)N[C@H](C(=O)N[C@@H](CO)C(=O)N[C@@H](CC(C)C)C(=O)N[C@@H](CCCNC(=N)N)C(=O)N[C@@H](Cc1c[nH]cn1)C(=O)N[C@@H](Cc1ccc(O)cc1)C(=O)N[C@@H](Cc1ccc(O)cc1)C(=O)N[C@@H](CC(N)=O)C(=O)N[C@@H](Cc1c[nH]c2ccccc12)C(=O)N[C@@H](CC(C)C)C(=O)N[C@H](C(=O)N[C@@H](CCCNC(=N)N)C(=O)N[C@@H](CCC(N)=O)C(=O)N[C@@H](CCCNC(=N)N)C(=O)N[C@@H](Cc1ccc(O)cc1)C(N)=O)[C@@H](C)O)C(C)C
B6: Compound 226 (peptide)
peptide: Isovaleryl-APEK([AEEA-AEEA-γGlu-C18 diacid])PEEAASPEETQRYYVSLRHYYNWLTRQRY-NH2
SMILES: CC(C)CC(=O)N[C@@H](C)C(=O)N1CCC[C@H]1C(=O)N[C@@H](CCC(=O)O)C(=O)N[C@@H](CCCCNC(=O)COCCOCCNC(=O)COCCOCCNC(=O)CC[C@H](NC(=O)CCCCCCCCCCCCCCCCC(=O)O)C(=O)O)C(=O)N1CCC[C@H]1C(=O)N[C@@H](CCC(=O)O)C(=O)N[C@@H](CCC(=O)O)C(=O)N[C@@H](C)C(=O)N[C@@H](C)C(=O)N[C@@H](CO)C(=O)N1CCC[C@H]1C(=O)N[C@@H](CCC(=O)O)C(=O)N[C@@H](CCC(=O)O)C(=O)N[C@H](C(=O)N[C@@H](CCC(N)=O)C(=O)N[C@@H](CCCNC(=N)N)C(=O)N[C@@H](Cc1ccc(O)cc1)C(=O)N[C@@H](Cc1ccc(O)cc1)C(=O)N[C@H](C(=O)N[C@@H](CO)C(=O)N[C@@H](CC(C)C)C(=O)N[C@@H](CCCNC(=N)N)C(=O)N[C@@H](Cc1c[nH]cn1)C(=O)N[C@@H](Cc1ccc(O)cc1)C(=O)N[C@@H](Cc1ccc(O)cc1)C(=O)N[C@@H](CC(N)=O)C(=O)N[C@@H](Cc1c[nH]c2ccccc12)C(=O)N[C@@H](CC(C)C)C(=O)N[C@H](C(=O)N[C@@H](CCCNC(=N)N)C(=O)N[C@@H](CCC(N)=O)C(=O)N[C@@H](CCCNC(=N)N)C(=O)N[C@@H](Cc1ccc(O)cc1)C(N)=O)[C@@H](C)O)C(C)C)[C@@H](C)O

The target in this assay is T1, human neuropeptide Y2 receptor. Nature of the assay: radioligand competition (125I-PYY(1-36)), hNPY2R membranes. The method, boiled down:
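Commercial human Y2 receptor membranes (0.5 μg protein/well) were incubated with peptide for 2 h at room temperature in 50 mM HEPES, 5 mM MgCl₂, 1 mM CaCl₂, pH 7.4, with 0.2% ovalbumin. Bound radioligand was separated on PEI-soaked GF/C filters and counted by scintillation, and IC₅₀ came from nonlinear sigmoidal regression.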
For orientation: Ki means a dissociation constant, usually derived from enzyme kinetics or from competition with a known ligand. The low end stands for tighter binding, the high end for weaker binding. On to B1, for which the affinity, expressed as Ki, was 4.77 nM. Next, B2: 2.84 nM.

For the molecule B3, the Ki amounted to 4.64 nM. In the case of B4 it was 0.81 nM. In the case of B5 it was 12.3 nM; in that of B6, 1.21 nM.
